In paper PMC2935290 one finds other data, which are given here for one substance.

This experiment deals with HLA-DPB1*0101 (human (endogenous in VAVY)). Kind of experiment: radioligand binding.

… A7W (peptide): the other came out at 3.1.
